Measured values reported in PMC11310688.

Assays:
[1] = target: dynactin subunit p150^Glued, Q14203-1; assay: co-immunoprecipitation (IP: anti-Halo) with immunoblot quantification; settings: HEK293 cell lysate, bars mean ± SEM, parent: est. 1.0, read off a plot
[2] = target: Halo-HA-Nesp2-SR48∼56 (Nesprin-2 spectrin repeats 48-56) (mouse) (UniProt Q6ZWQ0)
[3] = target: kinesin heavy chain (KHC) (UniProt P33176); assay: co-immunoprecipitation (IP: anti-Halo) with immunoblot quantification; settings: HEK293 cell lysate; n = 5 independent experiments; bars mean ± SEM; parent: est. 1.0; read off a plot

| Substance | velocity of rapalog-induced peroxisome transport by Nesp2-SR48ΔKASH-FRB (5655-6767aa) along microtubules in MRC5 cells, both directions [2] [µm/s] | other results |
| --- | --- | --- |
| Halo-HA-Nesp2-SR48-KASH (Nesprin-2 SR48-56 and the KASH domain) (from UniProt Q6ZWQ0-1) LEWD>LEAA |  | ratio to parent ([1]; n = 5 independent experiments): 0.98 |
| Bicaudal D2 (BicD2) (from UniProt Q8TD16 1-824) (natural protein) | 1 |  |
| Halo-HA-Nesp2-SR48-KASH (Nesprin-2 SR48-56 and the KASH domain) (from UniProt Q6ZWQ0-1) ALALE>AAAAA; SLFTE>AAAAA; RLARE>AAAAA; AAWLG>VVWLG |  | ratio to parent [3]: 0.22; ratio to parent ([1]; n = 5 independent experiments): 0.19 |
| kinesin heavy chain (KHC) (from UniProt P33176 1-963) (natural protein) | 1 |  |
| Halo-HA-Nesp2-SR48-KASH (Nesprin-2 SR48-56 and the KASH domain) (from UniProt Q6ZWQ0-1) ALALE>AAAAA; SLFTE>AAAAA; RLARE>AAAAA; LEWD>LEAA; AAWLG>VVWLG |  | ratio to parent ([1]; 3 data points drawn for this bar): 0.08 |

Further lines, with some results ahead:

| velocity of rapalog-induced peroxisome transport by Nesp2-SR48ΔKASH-FRB (5655-6767aa) along microtubules in MRC5 cells, both directions [2] [µm/s] | Substance | other results |
| --- | --- | --- |
| 1 | dynein heavy chain (DHC) (from UniProt Q14204 1-4646) (natural protein) |  |
| 1 | dynactin subunit p150^Glued (from UniProt Q14203-1 1-1278) (natural protein) |  |
